We go through 3 molecules from publication PMC8928223, “The Collagen Receptor Discoidin Domain Receptor 1b Enhances Integrin β1-Mediated Cell Migration by Interacting With Talin and Promoting Rac1 Activation” (Frontiers in Cell and Developmental Biology, 2022).

In experiment [1] the target is T1, talin head domain (THD, a. a. 1-433), HIS-tagged (UniProt P26039 1-433).
T1 chain: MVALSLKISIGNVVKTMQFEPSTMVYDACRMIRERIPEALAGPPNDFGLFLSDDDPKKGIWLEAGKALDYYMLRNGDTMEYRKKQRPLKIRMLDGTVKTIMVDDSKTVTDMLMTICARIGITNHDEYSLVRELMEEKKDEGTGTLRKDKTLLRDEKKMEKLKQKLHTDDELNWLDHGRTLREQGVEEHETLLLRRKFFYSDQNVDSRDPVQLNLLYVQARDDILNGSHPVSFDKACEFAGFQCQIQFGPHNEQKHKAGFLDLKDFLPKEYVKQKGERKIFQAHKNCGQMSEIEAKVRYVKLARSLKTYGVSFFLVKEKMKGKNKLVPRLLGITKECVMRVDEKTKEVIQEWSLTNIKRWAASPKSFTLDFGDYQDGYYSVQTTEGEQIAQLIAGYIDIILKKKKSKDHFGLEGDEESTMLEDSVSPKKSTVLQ
In words: ELISA. (In an ELISA, binding on a coated surface is turned into a signal by an enzyme label.)

For experiment [2], the target named is T2, DDR1b-Turbo containing a Flag tag (human, UniProt Q08345-1 19-913).
T2 construct: Discoidin domain receptor 1, isoform DDR1b, human, fused to the biotin ligase turbo-Flag as bait for BioID; construct described in Borza et al., 2021; source: HEK 293, stably transfected, in live cells and lysate
Put plainly: proximity labelling; BioID with turbo-Flag fused to DDR1 in HEK cells plated on collagen I (30 µg/ml) for 1-3 h with 50 µM biotin; streptavidin-agarose pull-down of the lysate and Western blot. The note with it: partners not purified.

B1: DDR1a cytoplasmic domain (domain or fragment)
chain: WRLHWRRLLSKAERRVLEEELTVHLSVPGDTILINNRPGPREPPPYQEPRPRGNPPHSAPCVPNGSAYSGDYMEPEKPGAPLLPPPPQNSVPHYAEADIVTLQGVTGGNTYAVPALPPGAVGDGPPRVDFPRSRLRFKEKLGEGQFGEVHLCEVDSPQDLVSLDFPLNVRKGHPLLVAVKILRPDATKNARNDFLKEVKIMSRLKDPNIIRLLGVCVQDDPLCMITDYMENGDLNQFLSAHQLEDKAAEGAPGDGQAAQGPTISYPMLLHVAAQIASGMRYLATLNFVHRDLATRNCLVGENFTIKIADFGMSRNLYAGDYYRVQGRAVLPIRWMAWECILMGKFTTASDVWAFGVTLWEVLMLCRAQPFGQLTDEQVIENAGEFFRDQGRQVYLSRPPACPQGLYELMLRCWSRESEQRPPFSQLHRFLAEDALNTV
The Kd is the equilibrium constant for the complex coming apart. In experiment [1], B1 displayed a dissociation constant Kd of 220 nM.

B2: DDR1b cytoplasmic domain (domain or fragment)
chain: WRLHWRRLLSKAERRVLEEELTVHLSVPGDTILINNRPGPREPPPYQEPRPRGNPPHSAPCVPNGSALLLSNPAYRLLLATYARPPRGPGPPTPAWAKPTNTQAYSGDYMEPEKPGAPLLPPPPQNSVPHYAEADIVTLQGVTGGNTYAVPALPPGAVGDGPPRVDFPRSRLRFKEKLGEGQFGEVHLCEVDSPQDLVSLDFPLNVRKGHPLLVAVKILRPDATKNARNDFLKEVKIMSRLKDPNIIRLLGVCVQDDPLCMITDYMENGDLNQFLSAHQLEDKAAEGAPGDGQAAQGPTISYPMLLHVAAQIASGMRYLATLNFVHRDLATRNCLVGENFTIKIADFGMSRNLYAGDYYRVQGRAVLPIRWMAWECILMGKFTTASDVWAFGVTLWEVLMLCRAQPFGQLTDEQVIENAGEFFRDQGRQVYLSRPPACPQGLYELMLRCWSRESEQRPPFSQLHRFLAEDALNTV
B2 registered a Kd in experiment [1] of 96.5 nM.

B3: Breakpoint cluster region protein (BCR) (natural protein, human (endogenous in HEK 293), UniProt P11274 1-1271, looked up)
chain: MVDPVGFAEAWKAQFPDSEPPRMELRSVGDIEQELERCKASIRRLEQEVNQERFRMIYLQTLLAKEKKSYDRQRWGFRRAAQAPDGASEPRASASRPQPAPADGADPPPAEEPEARPDGEGSPGKARPGTARRPGAAASGERDDRGPPASVAALRSNFERIRKGHGQPGADAEKPFYVNVEFHHERGLVKVNDKEVSDRISSLGSQAMQMERKKSQHGAGSSVGDASRPPYRGRSSESSCGVDGDYEDAELNPRFLKDNLIDANGGSRPPWPPLEYQPYQSIYVGGMMEGEGKGPLLRSQSTSEQEKRLTWPRRSYSPRSFEDCGGGYTPDCSSNENLTSSEEDFSSGQSSRVSPSPTTYRMFRDKSRSPSQNSQQSFDSSSPPTPQCHKRHRHCPVVVSEATIVGVRKTGQIWPNDGEGAFHGDADGSFGTPPGYGCAADRAEEQRRHQDGLPYIDDSPSSSPHLSSKGRGSRDALVSGALESTKASELDLEKGLEMRKWVLSGILASEETYLSHLEALLLPMKPLKAAATTSQPVLTSQQIETIFFKVPELYEIHKEFYDGLFPRVQQWSHQQRVGDLFQKLASQLGVYRAFVDNYGVAMEMAEKCCQANAQFAEISENLRARSNKDAKDPTTKNSLETLLYKPVDRVTRSTLVLHDLLKHTPASHPDHPLLQDALRISQNFLSSINEEITPRRQSMTVKKGEHRQLLKDSFMVELVEGARKLRHVFLFTDLLLCTKLKKQSGGKTQQYDCKWYIPLTDLSFQMVDELEAVPNIPLVPDEELDALKIKISQIKNDIQREKRANKGSKATERLKKKLSEQESLLLLMSPSMAFRVHSRNGKSYTFLISSDYERAEWRENIREQQKKCFRSFSLTSVELQMLTNSCVKLQTVHSIPLTINKEDDESPGLYGFLNVIVHSATGFKQSSNLYCTLEVDSFGYFVNKAKTRVYRDTAEPNWNEEFEIELEGSQTLRILCYEKCYNKTKIPKEDGESTDRLMGKGQVQLDPQALQDRDWQRTVIAMNGIEVKLSVKFNSREFSLKRMPSRKQTGVFGVKIAVVTKRERSKVPYIVRQCVEEIERRGMEEVGIYRVSGVATDIQALKAAFDVNNKDVSVMMSEMDVNAIAGTLKLYFRELPEPLFTDEFYPNFAEGIALSDPVAKESCMLNLLLSLPEANLLTFLFLLDHLKRVAEKEAVNKMSLHNLATVFGPTLLRPSEKESKLPANPSQPITMTDSWSLEVMSQVQVLLYFLQLEAIPAPDSKRQSILFSTEV
modifications: biotinylated by the turbo ligase in cells
notes: Breakpoint cluster region protein, in HEK 293 cells, detected with an anti-BCR antibody after streptavidin pull-down; source: endogenous, HEK 293 cells, in lysate
In the case of B3, the “fold increase in biotinylated BCR against DDR1a-expressing cells” value in experiment [2] stood at 2.92 ± 1.42 fold.
